# Results: patent US20260069726A1, “ZWITTERIONIC COMPOUNDS AND USES THEREOF” (priority 2022, published 2026)
# Assays:
# [1] = format: physicochemical; details: pH 7.4
# Experimental: The lipophilicity of each one of the [^68Ga]Ga-DOTA-TATEs were assessed as described in the literature. In brief, two phases of 1-octanol and phosphate buffer (PBS) at a pH of 7.4 were presaturated with each other. The presaturated 1-octanol (3.0 mL) was added to 3.0 mL of presaturated PBS that had about 0.3 MBq of labelled [^68Ga]Ga-DOTA-TATEs. The mixture was vortexed for 1.0 minute at room temperature then centrifuged for 1.0 minute at 3000 RPM. 1.0 mL of each phase was taken and measured its activity in automated gamma counter. Log D7.4 was determined for at least three experiments using Equation 1 below, where CPM (count per minute) is the reading from the gamma counter.
# [2] = format: in vitro ADME, mouse
# Experimental: (§1) Serum stability was determined using a previously published method. Aliquots of each one of the [^68Ga]Ga-DOTA-TATEs (5.0 MBq) were added to 0.4 mL human or mice serum and incubated at 37° C. Aliquots (20 μL) were taken at various time intervals (10, 30, 60, 90, 120 minutes) and quenched in ice-cold acetonitrile. The samples were centrifuged, and the supernatants were diluted further with deionized water and were analyzed by radio-HPLC (a flow rate 0.65 mL/min with a gradient of CH3CN:H2O with 0.1% TFA in both). 5.0 MBq of [^68Ga]Ga-DOTA-TATEs were prepared in 0.4 mL of PBS and used as a reference in the radio-HPLC measurement for the stability in serum study.
# [3] = format: in vitro ADME; details: plasma
# Experimental: Serum binding assay for each one of [^68Ga]Ga-DOTA-TATEs were carried out as described in the literature. Compendiously, labelled [^68Ga]Ga-DOTA-TATEs (4-3 MBq) were added to freshly prepared 0.1 mL of anticoagulated human or mice plasma and the mixtures were incubated for 120 minutes at 37° C. This was followed by addition of 1.0 mL ice-cold acetonitrile and centrifuged for 2 minutes at 3000 RPM. The addition of acetonitrile had been repeated two times and all supernatants (denoted as A) were combined and the total radioactivity was measured using automated gamma counter. The radioactivity of the precipitate (B) was measured as well. The plasma-protein binding rate was calculated using Equation 2 below (n=3).
# [4] = format: in vitro ADME, human
# Experimental: as §1
# [5] = test system: AR42J (SSTR2 over-expressing) subcutaneous tumors; assay: Ex vivo biodistribution in xenograft mice two hours post injection; details: for tumor uptake compared with the other compounds: AR42J tumor bearing mice; for tumor uptake compared with the other compounds / tumor uptake, biodistribution / tumor-to-kidney ratio: 2 hours post injection; for tumor uptake, biodistribution / tumor-to-kidney ratio: male AR42J tumor bearing mice; for pharmacokinetic of healthy-tissue clearance (words, figure legend) / tumor-tissue ratios (words, figure legend): mouse, in vivo
# Experimental: (§2) The experimental protocol was approved by the University of Saskatchewan Committee on Animal Care and procedures were performed in accordance with the guidelines of the Canadian Council on Animal Care and the Canadian Nuclear Safety Commission. Aliquots of about 200 μL of each one of [^68Ga]Ga-DOTA-TATEs (7-5 MBq with <10% EtOH) were loaded to 0.5 mL syringes and >96% Radiochemical yields (RCY) were confirmed by using radio-HPLC followed by injection to healthy CD1 female mice and xenograft bearing male NOD-SCID gamma mice (USASK colony F1 005557, strain NOD.Cg-PrkdcscidIl2rg) (n=4), via tail vein catheter while in the PET scanner with image acquisition started, under anesthesia (2.5% isoflurane in O2, at a flow rate of 2 mL/min). 90-minute dynamic images of all four mice were collected simultaneously on the Sofie GNEXT PET/CT small animal imaging system using the included 4-mouse heated bed. The mice were euthanized (by cervical dislocation while they were under the effect of anesthesia) at 2 hrs post injection and blood and specific organs were harvested, weighed, and residual activity in the organs were measured by using an automated gamma counter. All images were reconstructed using VivoQuant® 2020 software (patch 1 64 bit, build vq-2020patch1-0-ga8255affc).
# (§3) As done for healthy mouse studies, animals were awakened for 30 minutes following PET/CT and then euthanized at 2 hours post injection. Tissue/organ samples were collected, weighed, and the amount of activity present in the samples was measured using an automated gamma counter.
# in vivo = details: male, NOD-SCID gamma (NSG), mouse, in vivo, iv, total radioactivity
# Experimental: as §2, §3
# [6] = design: species or system healthy CD1 mice; details: mouse, in vivo
# Experimental: After imaging was complete, the mice were kept awake for an additional 30 minutes before being euthanized, bringing the total period of the injection to 2 hours. Biodistribution was performed by removing and weighing individual tissues and organs, and then measuring the activity of [^68Ga]Ga^3+ inside each sample using an automated gamma counter.
# [7] = design: species or system healthy CD1 mice; details: mouse, in vivo; remark: listed apart in the source
# Experimental: Experiments were performed in healthy female mice (CD1) to determine the behavior and distribution of these compounds (pharmacokinetics). Mice were catheterized via tail vein and injected while in the scanner, and dynamic PET-CT imaging was performed from time 0 until 1.5 hours post injection (n=4 each group, 4 mice in the scanner simultaneously).
# [8] = test system: AR42J (SSTR2 over-expressing) subcutaneous tumors; assay: Dynamic PET/CT imaging (0-90 minutes) in tumor-bearing mice; details: male NSG mice bearing AR42J tumors
# Experimental: as §2
Structure (SMILES),logD [1],MSS % (2 hrs.) = Mouse Serum Stability [2] [%],fraction unbound at 120 min [3],HSS % (2 hrs.) = Human Serum Stability [4] [%],tumor uptake compared with the other compounds ([5]; listed as Lys(ZW) derivative),tumor uptake compared with the other compounds ([5]; listed as [^68Ga]Ga-DOTA-Lys(ZW)-PEG4-TATE),"tumor uptake, biodistribution [5] [% ID/g]",tumor-to-kidney ratio [5],"pharmacokinetic of healthy-tissue clearance (words, figure legend) [5]","tumor-tissue ratios (words, figure legend) [5]",tissue uptake at 2 h (in vivo) [%ID/g],tumor uptake compared with the other compounds [5],fraction unbound [3],"renal uptake, biodistribution [6] [D/g %]",start of excretion / renal elimination into the bladder [7] [minutes post injection],"kidney accumulation, retention and clearance seen in dynamic PET/CT [8]"
C[C@@H](O)[C@H](NC(=O)[C@@H]1CSSC[C@H](NC(=O)[C@@H](Cc2ccccc2)NC(=O)CCOCCOCCOCCOCCNC(=O)[C@H](CCCC[N+](C)(C)CCCS(=O)(=O)[O-])NC(=O)CN2CCN(CC(=O)O)CCN(CC(=O)O)CCN(CC(=O)O)CC2)C(=O)N[C@@H](Cc2ccc(O)cc2)C(=O)N[C@H](Cc2c[nH]c3ccccc23)C(=O)N[C@@H](CCCCN)C(=O)N[C@@H]([C@@H](C)O)C(=O)N1)C(=O)O [DOTA-(ZW1)-PEG4-TATE],-3.39 ± 0.19,100,0.534,100,greater tumor uptake,highest,20.6±2.5,0.63,faster,improved,32.9 ± 19.8,–,–,–,–,–
C[C@@H](O)[C@H](NC(=O)[C@@H]1CSSC[C@H](NC(=O)[C@@H](Cc2ccccc2)NC(=O)CCOCCOCCOCCOCCNC(=O)[C@@H](Cc2ccc[n+](CCCS(=O)(=O)[O-])c2)NC(=O)CN2CCN(CC(=O)O)CCN(CC(=O)O)CCN(CC(=O)O)CC2)C(=O)N[C@@H](Cc2ccc(O)cc2)C(=O)N[C@H](Cc2c[nH]c3ccccc23)C(=O)N[C@@H](CCCCN)C(=O)N[C@@H]([C@@H](C)O)C(=O)N1)C(=O)O [DOTA-Pyr(ZW)-PEG4-TATE],-3.57,99.6 ± 0.1,0.575,100,–,–,–,–,–,–,–,–,–,–,–,–
C[C@@H](O)[C@H](NC(=O)[C@@H]1CSSC[C@H](NC(=O)[C@@H](Cc2ccccc2)NC(=O)CCOCCOCCOCCOCCNC(=O)[C@H](CCCC[N+](C)(C)CCCS(=O)(=O)[O-])NC(=O)[C@H](CCCC[N+](C)(C)CCCS(=O)(=O)[O-])NC(=O)CN2CCN(CC(=O)O)CCN(CC(=O)O)CCN(CC(=O)O)CC2)C(=O)N[C@@H](Cc2ccc(O)cc2)C(=O)N[C@H](Cc2c[nH]c3ccccc23)C(=O)N[C@@H](CCCCN)C(=O)N[C@@H]([C@@H](C)O)C(=O)N1)C(=O)O [DOTA-(ZW2)-PEG4-TATE],-3.36 ± 0.18,100,0.515,100,–,–,–,–,faster,improved,–,reduced tumor uptake,–,–,–,–
"C[C@@H](O)[C@H](NC(=O)[C@@H]1CSSC[C@H](NC(=O)[C@@H](Cc2ccccc2)NC(=O)CN2CCN(CC(=O)O)CCN(CC(=O)O)CCN(CC(=O)O)CC2)C(=O)N[C@@H](Cc2ccc(O)cc2)C(=O)N[C@H](Cc2c[nH]c3ccccc23)C(=O)N[C@@H](CCCCN)C(=O)N[C@@H]([C@@H](C)O)C(=O)N1)C(=O)O [DOTA-TATE, DOTA-Tyr^3-octreotate, reference compound]",-2.81,100,–,100,–,–,13.8±4.6,0.35,–,–,38.8 ± 42.7,–,0.567,~74±51,~70,rapid accumulation and protracted retention
